Results on one molecule are retold here after patent publication US6132722A, “Recombinant antibody-enzyme fusion proteins” (Bristol-Myers Squibb Company, priority 1998, dated 2000).

Series [1] in a line: Clearance of conjugate from the blood of nude mice. It counts as in vivo. As for the experimental part: FIGS. 9A and 9B depict pharmacokinetics of L49-sFv-bL in nude mice (3 animals/group). L49-sFv-bL was injected intravenously, tissues were removed and extracted at the indicated times, and the β-lactamase activity was determined using nitrocefin as a substrate. FIG. 9A depicts clearance of L49-sFv-bL from the blood. Injected dose was 4 mg/kg. FIG. 9B depicts L49-sFv-bL levels in subcutaneous 3677 melanoma tumors and in normal tissues. Injected dose was 1 mg/kg.
Conjugate Localization. Subcutaneous 3677 melanoma tumors were established in female athymic nu/nu mice (8-12 weeks old, Harlan Sprague-Dawley, Indianapolis, Ind.) by transplanting tumors that had been previously passaged as previously described (Kerr et al., Cancer Res., 55:3558-3563 (1995)). Tumor bearing mice were injected i.v. with L49-sFv-bL (1 or 4 mg mAb component/kg) or with L49-Fab'-bL (1.8 mg mAb component/kg). At various time intervals, the mice were anesthetized, bled through the orbital plexus, and sacrificed. Tissues were removed and homogenized in PBS containing 15 μg/ml aprotinin (2 mL/g tissue). To the homogenate was added 50 mM sodium phosphate containing 100 mM NaCl at pH 11.2 (10 ml/g tissue), and the suspension was mixed. After 20 min at room temperature, 3M sodium phosphate at pH 7.0 was added (2 ml/g tissue), and the mixture was mixed and centrifuged.
Quantification of conjugate concentrations was accomplished using a direct enzyme immunoassay. Polystyrene 96-well microtiter plates were coated with an affinity-purified rabbit polyclonal antisera to wild type E. cloacae bL (1 μg/ml), and were then blocked with specimen diluent (Genetic Systems Corp.). Serially diluted tissue extracts or purified samples (L49-sFv-bL as a standard for the fusion protein samples, L49-Fab'-bL as a standard for the L49-Fab'-bL samples) were added to the wells and allowed to bind for 3 h at room temperature. The plates were washed and developed by the addition of 0.1 ml of nitrocefin (O'Callaghan et al., Antimicrobial Agents and Chemotherapy, 1:283-288 (1972)) at 0.1 mM in PBS containing 1% dimethylformamide. Absorbance measurements were read in an ELISA plate reader using a 490 nm filter with 630 nm as the reference wavelength.
In Vivo Localization. Biodistribution studies of L49-sFv-bL and L49-Fab'-bL were carried out in nude mice bearing subcutaneous (s.c.) 3677 melanoma tumor xenografts. The conjugates were injected i.v., and at various time points tissues were removed and extracted under alkaline conditions to disrupt antigen-antibody interactions. The samples were then trapped a polyclonal antiserum to bL, and bL activity was measured using nitrocefin as a colorimetric indicator (O'Callaghan et al, Antimicrobial Agents and Chemotherapy, 1:283-288 (1972)).

In series [2] the test system is 3677 melanoma cells. The series can be described thus: In vitro cytotoxicity, [3H]thymidine incorporation. The class given is cell-based, human. How it is done:
In Vitro Cytotoxicity. 3677 melanoma cells were plated into 96-well microliter plates (10^4 cells/well in 100 μL of Iscove's Modified Dulbecco's Medium (IMDM) with 10% fetal bovine serum, penicillin (60 μg/ml), and streptomycin (100 μg/ml) and allowed to adhere overnight. For blocking experiments, the cells were incubated with unconjugated L49 at 1 μM for 30 min. prior to treatment with the L49 conjugates. The cells were treated with L49-sFv-bL or L49 Fab'-bL at 10 nM. After 30 min. at 4° C., the plates were washed three times with antibiotic-free RPMI 1640 media (Gibco) with 10% fetal bovine serum, and then varying concentrations of CCM (FIG. 1) were added. CCM and PDM were also added to cells treated with media alone. After 1 h at 37° C., cells were washed three times with IMDM and incubated approximately 18 h at 37° C. The cells were then pulsed for 12 h with [^3 H] thymidine (1 μCi/well) at 37° C., detached by freezing at -20° C. and thawing, and harvested onto glass fiber filter mats using a 96-well harvester (Wallac, Gaithersburg, Md.). Radioactivity was counted using a LKB Wallac β-plate counter.
In Vitro Cytotoxicity. […] Radioactivity was counted using a LKB Wallac β-plate counter.
The cytotoxic effects of L49-sFv-bL in combination with CCM were determined on 3677 human melanoma cells, which express the p97 antigen. […]
For orientation: Uptake of a labelled nucleoside into DNA is a usual measure of proliferation.

B1: L49-sFv-bL: recombinant fusion protein: L49 anti-p97 single-chain Fv (VH-218 linker-VL) fused to r2-1 mutant E. cloacae β-lactamase, SEQ ID NO: 20 (protein)
chain: MKYLLPTAAAGLLLLAAQPAMAEVQLQESGPSLVKPSQTLSLTCSVTGDSITSGYWNWIRKFPGNKLEYMGYISDSGITYYNPSLKSRISITRDTSKNQYYLQLNFVTAEDTATYNCARRTLATYYAMDYWGQGTSVTVSSGSTSGSGKPGSGEGSTKGDFVMTQTPLSLPVSLGDQASISCRASQSLVHSNGNTYLHWYLQKPGQSPKLLIYRVSNRFSGVPDRFSGSGSGTDFTLKISRVEAEDLGVYFCSQSTHVPPTFGGGTKLEIKRTPVSEKQLAEVVANTITPLMKAQSVPGMAVAVIYQGKPHYYTFGKADIAANKPVTPQTLFELGSISKTFTGVLGGDAIARGEISLDDAVTRYWPQLTGKQWQGIRMLDLATYTAGGLPLQVPDEVTDNASLLRFYQNWQPQWKPGTTRLYANASIGLFGALAVKPSGMPYEQAMTTRVLKPLKLDHTWINVPKAEEAHYAWGYRDGKAVRVSPGMLDAQAYGVKTNVQDMANWVMANMAPENVADASLKQGIALAQSRYWRIGSMYQGLGWEMLNWPVEANTVVETSFGNVALAPLPVAEVNPPAPPVKASWVHKTGSTGGFGSYVAFIPEKQIGIVMLANTSYPNPARVEAAYHILEALQTSEFE
Turning to B1, in series [1] (blood, i.v., 4 mg/kg), the “initial clearance half life t1/2 α” value came out at 18 min and the “terminal clearance half life t1/2 β” value came to 2.5 h. For the same molecule, the “clearance from the blood” value in series [1] (i.v., nude mice) is reported as “cleared very rapidly”. The “reduction of blood levels” value in series [1] (within 24 h of conjugate administration) is reported as 10^4. In addition, in series [2] (conjugate 10 nM, washed, then CCM 1 h), the “cytotoxic activity of conjugate + CCM combination” value was “equivalent in activity to PDM”. For the same molecule, the “activation of CCM on cells previously saturated with L49 mAb” value in series [2] (unconjugated L49 1 μM before the fusion protein) was “did not activate CCM”.
